Laboratory results taken from the supplement of paper PMC10567573.

B1: RTN1 (parent)
chain: VVAYLALAALSATISFRIYKSVLQ

Variants of: B1
Experiment: protein stability index of a GFP-peptide fusion (GPS, HEK-293T) (PSI 1-6); higher = more stable
Settings: c terminus: a fixed tail appended
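Also: lentivirally expressed fusions sorted by FACS into six bins by GFP to DsRed ratio, PSI derived from sequencing read proportions per bin multiplied by bin number.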

Variant | protein stability index
VVAYLALACLSATISFRIYKSVLQ [A9C] | 2.86
VVAYLALALLSATISFRIYKSVLQ [A9L] | 2.44
VVAYLAPAALSATISFRIYKSVLQ [L7P] | 2.7
VVAYLANAALSATISFRIYKSVLQ [L7N] | 2.38
VVAYLASAALSATISFRIYKSVLQ [L7S] | 2.63
VVAYLAYAALSATISFRIYKSVLQ [L7Y] | 3.97
VVAYLAGAALSATISFRIYKSVLQ [L7G] | 3.96
VVAYLAMAALSATISFRIYKSVLQ [L7M] | 2.91
VVAYLAQAALSATISFRIYKSVLQ [L7Q] | 2.07
VVAYLALAALSATISFRFYKSVLQ [I18F] | 2.06
VVAYLALAALSATISFRKYKSVLQ [I18K] | 4.46
VVAYLALAALSATISFRTYKSVLQ [I18T] | 1.35
VVAYLALAALSATISFRRYKSVLQ [I18R] | 2.8
VVAYLPLAALSATISFRIYKSVLQ [A6P] | 2.32
VVAYLCLAALSATISFRIYKSVLQ [A6C] | 2.86
VVAYLELAALSATISFRIYKSVLQ [A6E] | 2.6
VVAYLTLAALSATISFRIYKSVLQ [A6T] | 2.77
VVAYLVLAALSATISFRIYKSVLQ [A6V] | 3.12
VVAYLFLAALSATISFRIYKSVLQ [A6F] | 3.07
VVAYLYLAALSATISFRIYKSVLQ [A6Y] | 2.9
VVAYLMLAALSATISFRIYKSVLQ [A6M] | 3.4
VVAYLKLAALSATISFRIYKSVLQ [A6K] | 2.74
VVAYLALAALSATISFRIYHSVLQ [K20H] | 3.98
VVAYLALAALSATISFRIYWSVLQ [K20W] | 2.77

Variant | protein stability index
VVAYLALAALSATISFRIYPSVLQ [K20P] | 2.58
VVAYLALAALSATISFRIYMSVLQ [K20M] | 3.61
VVAYLALAALSATISFRIYASVLQ [K20A] | 3.28
VVAYLALAALSATISFRIYSSVLQ [K20S] | 2.68
VVAYLALAALSATISFRIYRSVLQ [K20R] | 4.17
VVAYLALAALSATISFRIYKSLLQ [V22L] | 2.33
VVAYLALAALSATISFRIYKSDLQ [V22D] | 3.13
VVAYLALAALSATISFRIYKSCLQ [V22C] | 3.58
VVAYLALAALSATISFRIYKSALQ [V22A] | 3.36
VVAYLALAALSATISFRIYKSWLQ [V22W] | 4.26
VVAYLALAALSATISFRIYKSRLQ [V22R] | 2.44
VVAYNALAALSATISFRIYKSVLQ [L5N] | 2.34
VVAYWALAALSATISFRIYKSVLQ [L5W] | 3.59
VVAYHALAALSATISFRIYKSVLQ [L5H] | 2.85
VVAYPALAALSATISFRIYKSVLQ [L5P] | 2.31
VVAYQALAALSATISFRIYKSVLQ [L5Q] | 2.8
VVAYLALAALNATISFRIYKSVLQ [S11N] | 3.04
VVAYLALAALRATISFRIYKSVLQ [S11R] | 2.44
VVAYLALAALVATISFRIYKSVLQ [S11V] | 1.41
VVAYLALAALKATISFRIYKSVLQ [S11K] | 2.4
VVAYLALAALHATISFRIYKSVLQ [S11H] | 2.33
VVACLALAALSATISFRIYKSVLQ [Y4C] | 3.23
VVATLALAALSATISFRIYKSVLQ [Y4T] | 4.26
VVANLALAALSATISFRIYKSVLQ [Y4N] | 3.01

Variant | protein stability index
VVARLALAALSATISFRIYKSVLQ [Y4R] | 3
VVAMLALAALSATISFRIYKSVLQ [Y4M] | 2.6
VVAQLALAALSATISFRIYKSVLQ [Y4Q] | 2.68
VVAYLALAALSATISFRIYKSVLN [Q24N] | 3.38
VVAYLALAALSATISFRIYKSVLV [Q24V] | 3.35
VVAYLALAALSATISFRIYKSVLD [Q24D] | 3.01
VVAYLALAALSATISFRIYKSVLS [Q24S] | 2.03
VVHYLALAALSATISFRIYKSVLQ [A3H] | 2.2
VVKYLALAALSATISFRIYKSVLQ [A3K] | 1.08
VVFYLALAALSATISFRIYKSVLQ [A3F] | 2.82
VVRYLALAALSATISFRIYKSVLQ [A3R] | 2.69
VVVYLALAALSATISFRIYKSVLQ [A3V] | 2.16
VVLYLALAALSATISFRIYKSVLQ [A3L] | 2.06
VVIYLALAALSATISFRIYKSVLQ [A3I] | 2.65
VVAYLALAALSATISFPIYKSVLQ [R17P] | 2.35
VVAYLALAALSATISFHIYKSVLQ [R17H] | 2.7
VVAYLALAALSATISFFIYKSVLQ [R17F] | 1.94
VVAYLALAALSATIVFRIYKSVLQ [S15V] | 4.48
VVAYLALAALSATIAFRIYKSVLQ [S15A] | 1.01
VVAYLALAALSATIFFRIYKSVLQ [S15F] | 1.27
VVAYLALAALSATIQFRIYKSVLQ [S15Q] | 2.82
VVAYLALNALSATISFRIYKSVLQ [A8N] | 1.69
VVAYLALFALSATISFRIYKSVLQ [A8F] | 1.68
VVAYLALPALSATISFRIYKSVLQ [A8P] | 3.27

Variant | protein stability index
VVAYLALAALSATISFRIYKSVHQ [L23H] | 3.01
VVAYLALAALSATISFRIYKSVQQ [L23Q] | 1.9
VVAYLALAALSATISFRIYKSVYQ [L23Y] | 3.05
VVAYLALAALSATISFRIYKSVSQ [L23S] | 1.66
VVAYLALAALSATISFRIYKSVRQ [L23R] | 2.55
VVAYLALAALSATISFRIYKSVAQ [L23A] | 2.28
VVAYLALAALSATISFRIYKSVIQ [L23I] | 3.31
VVAYLALAALSATISFRIYKSVEQ [L23E] | 2.65
VVAYLALAALSATISFRIYKSVVQ [L23V] | 2.5
VVAYLALAALSATISFRIYKSVCQ [L23C] | 3.13
VVAYLALAALSYTISFRIYKSVLQ [A12Y] | 2.39
VVAYLALAALSWTISFRIYKSVLQ [A12W] | 3.1
VVAYLALAALSETISFRIYKSVLQ [A12E] | 2.05
VVAYLALAALSQTISFRIYKSVLQ [A12Q] | 2.67
VVAYLALAALSAIISFRIYKSVLQ [T13I] | 2.86
VVAYLALAALSAMISFRIYKSVLQ [T13M] | 1.58
VVAYLALAALSANISFRIYKSVLQ [T13N] | 2.54
VVAYLALAALSAPISFRIYKSVLQ [T13P] | 2.21
VVAYLALAALSAYISFRIYKSVLQ [T13Y] | 1.86
VVAYLALAALSAVISFRIYKSVLQ [T13V] | 2.39
VVAYLALAALSAAISFRIYKSVLQ [T13A] | 1.2
VVAYLALAALSAKISFRIYKSVLQ [T13K] | 2.77
